Earlier results as cited in PMC4465285.

Tests used:
[1] = molecular target: F-actin (Saccharomyces cerevisiae) (UniProt P60010); experiment: fluorescence titration and cosedimentation
[2] = molecular target: F-actin (Oryctolagus cuniculus) (UniProt P68135)

Substance	Kd [1] [µM]	Kd [2] [µM]
Cofilin-1 (from UniProt P23528)	0.016	
Drebrin 1-300 (from UniProt Q16643)		0.2
